According to patent publication US20090209433:

Target: VDAC from Yeast (voltage dependent anion selective channel), purified (UniProt P04840)

Substance: bovine cytochrome c oxidase holoenzyme (crystal grade)
- KM (µM) at VDAC 50 nM: 28 µM
- KM (µM) at VDAC 100 nM: 44 µM
- KM (µM) at VDAC 200 nM: 59 µM
- VMAX (µM/min) at VDAC 50 nM: 132 µM/min
- VMAX (µM/min) at VDAC 100 nM: 199 µM/min
- VMAX (µM/min) at VDAC 200 nM: 224 µM/min
- VMAX/KM (1/min) at VDAC 50 nM: 4.7 min⁻¹
- VMAX/KM (1/min) at VDAC 100 nM: 4.5 min⁻¹
- VMAX/KM (1/min) at VDAC 200 nM: 3.8 min⁻¹
